Key:
[1] = target: T1, EGFR in the form of A431 cell membrane receptor preparations (Homo sapiens, UniProt P00533); assay: EGFR kinase ELISA; type: biochemical; conditions: variant alone, compared with MLX hEGF
T1 construct: EGFR in the form of A431 cell membrane receptor preparations; endogenous in cells; host or cells: A431 cell membranes
Experimental: (§1) To examine the kinase activity of epidermal growth factor receptor (EGFR) in the presence of hEGF and EGF variants, an ELISA was developed. Briefly, an ELISA plate is coated with poly-glu, tyr (4:1) which serves as a substrate for tyrosine phosphorylation by the EGFR. The ELISA plate is then incubated with assay buffer, which includes an ATP generating system, EGFR in the form of A431 cell membrane receptor preparations, and EGF variant. After a 15 minute incubation ATP is added to the reaction to allow the kinase activity to proceed. Anti-phosphotyrosine antibody is added to bind to the phosphorylated tyrosine bound to the plate. Anti-mouse HRP conjugate antibody is added as the detection antibody, which is visualized with the addition of tetramethyl benzidine (TMB).
The glycine at position 18 was replaced by glutamate (G18E), glutamine (G18Q), lysine (G18K), phenylalanine (G18F), and leucine (G18L). These variants were tested in the kinase assay described above and compared with recombinant wild-type human EGF (MLX hEGF).
The following variations in the glycine at position 39 were made: G39E, G39Q, G39K, and G39L.

[2] = test system: HER5 cell line (expresses the human EGF receptor); assay: HER5 cell proliferation assay (WST-1); type: cell-based, murine; conditions: 48 hour proliferation, serum-free, WST-1 OD 450
Experimental: The HER5 cell line, a murine fibroblast line (derived from the NR-6 line) that has been stably transfected to express the human EGF receptor was provided by Dr. M. C. Hung (MD Anderson Cancer Center). Stock cultures of HER5 were propagated in D-MEM/F12 medium containing 10% fetal bovine serum, 100 units/ml of penicillin and 100 ug/ml of streptomycin in a water-jacketed incubator at 37° C. in a humidified 5% CO2 atmosphere. For HER5 proliferation assays, the cells were changed into DMEM/F12 without serum for 24 hours. Cells were then trypsinized and suspended at 1E5 cells/ml. Serial dilutions of hEGF (PeproTech, Rocky Hill, N.J.), His-tagged hEGF, test proteins were prepared in serum-free DMEM/F12 at 2-fold the final concentration and plated into the wells of 96-well plates. Fifty microliters of cell suspension (5000 cells) were added to appropriate wells bringing the total volume to 100 ul at the desired concentrations. Plates were incubated for a 48 hour proliferation period. Cell proliferation was determined by addition of 10 ul/well of WST-1 Cell Proliferation Reagent (Roche Applied Sciences, Indianapolis, Ind.) for the last three hours of the proliferation period. […] The amount of formazan was measured at 450 nm using a microplate reader (Dynex Technologies) with MRX Revelation software.

BALB/3T3 cells = assay: BALB/3T3 proliferation competition assay with hEGF; type: cell-based, murine; conditions: 0.5 nM and 5.0 nM hEGF, 48 hours
Experimental: The BALB/3T3 proliferation assay was modified to test variants for competition with hEGF in the stimulation of BALB/3T3 cell proliferation. Serial dilutions of the test mutants were tested for proliferation in the presence of 0 nM, 0.5 nM, and 5 nM of the MLX-hEGF. BALB/3T3 cells were suspended at 3E4 cells/ml in complete serum media. 100 ul of cell suspension was plated per well in 96-well plates and incubated for 20-24 hours. Media was then aspirated from the wells, and the cells were washed once with DPBS. His-tagged wild-type hEGF at twice the final concentration was added in 50 ul/well. Serial dilutions of test mutants were prepared at twice the final concentration in serum-free media and 50 ul was added per well, bringing the final volume per well to 100 ml at the target concentrations of wt-hEGF and test mutants. Assay plates were incubated for 48 hours and cell proliferation was determined with WST-1 cell proliferation reagent (10 ul/well, 5 hr incubation). The absorbance at 450 nm was read with a microplate reader.

[3] = target: T1, EGFR in the form of A431 cell membrane receptor preparations; assay: EGFR kinase competition ELISA; type: biochemical; conditions: 50 nM human EGF added
Experimental: as §1
The EGFR kinase competition assay is basically the same as outlined above in the description of the kinase ELISA. The difference is that in the initial incubation with the EGFR and EGF variant, 50 nM human EGF is added which competes with the EGF variant for binding to the EGFR. Both the variant EGF and the human EGF are added to the assay plate before the addition of the EGFR and assay buffer, making sure neither ligand has an advantage in binding to the EGFR.

[4] = test system: hEGF-stimulated cell proliferation; assay: Inhibition of hEGF-stimulated cell proliferation (FIG. 4, FIG. 5); type: cell-based; conditions: figure legends, cell line not stated
EGFR = EGFR (Homo sapiens, UniProt P00533); assay: EGFR dimerization (FIG. 6)

activation of the EGFR kinase [1] | triggering of EGFR dimerization (EGFR) | Substance | potency in the HER5 proliferation assay [2] | competition with hEGF in stimulation of BALB/3T3 cell proliferation (BALB/3T3 cells) | competition with hEGF-related stimulation of EGFR kinase [3] | inhibition of hEGF-stimulated cell proliferation [4]
some slight activity | – | G39E: hEGF polypeptide variant, G39 replaced by glutamate (NSDSECPLSHDGYCLHDGVCMYIEALDKYACNCVVGYIEERCQYRDLKWWELR; not fully specified; left off: small tags and cut ends) | – | – | – | –
some slight activity | – | G39K: hEGF polypeptide variant, G39 replaced by lysine (NSDSECPLSHDGYCLHDGVCMYIEALDKYACNCVVGYIKERCQYRDLKWWELR; not fully specified; left off: small tags and cut ends) | least potency in that series | Apparent competition was observed at both hEGF concentrations | – | –
– | – | G39L: hEGF polypeptide variant, G39 replaced by leucine (NSDSECPLSHDGYCLHDGVCMYIEALDKYACNCVVGYILERCQYRDLKWWELR; not fully specified; left off: small tags and cut ends) | least potency in that series | only seen in at 0.5 nM hEGF | marked interference with hEGF-related stimulation of EGFR kinase | inhibition of hEGF-stimulated cell proliferation
unable to activate the EGFR kinase | does not trigger EGFR dimerization | V35EG39L: hEGF polypeptide variant, glycine 39 substituted with leucine and valine 35 with glutamic acid (NSDSECPLSHDGYCLHDGVCMYIEALDKYACNCVEGYILERCQYRDLKWWELR; not fully specified; left off: small tags and cut ends) | – | – | marked interference with hEGF-related stimulation of EGFR kinase | inhibition of hEGF-stimulated cell proliferation
